According to the supplement of paper PMC12764529:
± gives the half width of the 95% confidence interval.

Assays:
[1] = folding stability dG unfold (combined trypsin and chymotrypsin); higher = more stable
Outline: (§1)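 Sequencing followed digestion of designed mini-proteins with trypsin and chymotrypsin, each at 11 concentrations in threefold dilutions together with a no-protease condition. The mini-proteins were under 80 residues, had no cysteine, sat in a PA-tagged cDNA display construct, and were kept only if AlphaFold2 dimer inter-PAE was above 15. From the counts, Bayesian fitting gave K50, and unfolding free energy was derived against a sequence-predicted unfolded-state K50 and a shared folded-state K50, per protease or combined.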

[2] = folding stability dG unfold from chymotrypsin proteolysis; higher = more stable
Outline: as §1

[3] = folding stability dG unfold from trypsin proteolysis; higher = more stable
Outline: as §1

| Sequence | folding stability dG unfold [1] [kcal/mol] | folding stability dG unfold [2] [kcal/mol] | folding stability dG unfold [3] [kcal/mol] |
| --- | --- | --- | --- |
| SAGGSAGGSKEKYIKIVVEVNGEKKVIVVKAKTIEELEELAKKLNLEVEIEKREDGYLVIRLKSAGGSAGGS [r12_810_TrROS_Hall] | 3.29 ± 0.058 | 3.36 ± 0.058 | 3.21 ± 0.053 |
| SAGGSAGGSGIPVEPIPVRNPKGEIVEVIRFPEDFALVVFPSGERALLRGPELSLRDVVFFPLSAGGSAGGS [r12_491_TrMRF] | 0.533 ± 0.055 | 0.305 ± 0.054 | 0.675 ± 0.023 |
| SAGGSMTEEELEKKAKEIAEELEKKYKEENPNVEVKVTFEVIPEKGIIKITATSPKGKKLKEIIIPLLSAGG [r13_247_JUSTAS] | 3.9 ± 0.31 | 3.54 ± 0.23 | 3.74 ± 0.28 |
| SAGGSSSMVTRTPSTSTVTVKRGNGPVTVSLPTTVVTRPDGSRTLETTVDTKDPAGNPAATTVTPAPSAGGS [r16_581_JUSTAS] | 0.643 ± 0.093 | 0.98 ± 0.048 | 0.0362 ± 0.1 |
| SAGGHHMTIETFEEPDKLTVVVDGDDPEATREYLLQKVKEESSRKPVKVTFTEDPNGKLTITFDLKEESAGG [r13_158_JUSTAS] | -0.17 ± 0.34 | -0.186 ± 0.34 | -0.568 ± 0.26 |
| SAGPPWEPVPITPEIIDKLADKLNPGFPISLQVYRHPDGRVKISIRNEGSGKEYTLVVDPDGDIEIEPSAGG [r19_70_TrROS] | 3.4 ± 0.1 | 3.522 ± 0.033 | 3.07 ± 0.19 |
| SAVPLELPLSDEELRELLEKHSVDSTITLTLKVGDRWVRVTVTLKEVKREPNRLSVSVELTVTPLPPEESAG [r14_335_JUSTAS] | 3.81 ± 0.13 | 4.08 ± 0.051 | 2.86 ± 0.07 |
| SAGGSAGGSAGGMVTATVTEYQPGEGLLTVKPPDGSTITIAVPPSVSYEELKNTTIDLSLSAGGSAGGSAGG [r7_296_JUSTAS] | 0.714 ± 0.066 | 0.021 ± 0.072 | 1.09 ± 0.036 |
| SAGGSAGGSEVEITVTETEDTVTVTIRFKDTGKTVTITVPKDMTPEEVLARAKELLKKLGIEPSAGGSAGGS [r12_764_TrROS_Hall] | 3.88 ± 0.25 | 3.75 ± 0.16 | 3.91 ± 0.18 |
| SAGGSKLPPGQKVIEIEWKIPPGLKPGQPFKISDEFINKLAERHGNIHITNIQFTNSYMKWSIIIDSAGGSA [r2_383_TrROS] | 2.11 ± 0.067 | 2.2 ± 0.051 | 1.83 ± 0.063 |
| SMITIPYNIQTDPSQAEKLAEEIAKEVEEKYGLKVVGVELVEWVPAPDGSESSVKVEIKIEAPDPKNILLSA [r9_302_JUSTAS] | 0.705 ± 0.096 | 0.713 ± 0.089 | 0.614 ± 0.031 |
| SAGGSAGGSAAYTTPDGTNIILKDPNRPVVSLYKKDPSTNTWTPVSTLPISEVPEEILELLSAGGSAGGSAG [r3_241_JUSTAS] | 0.599 ± 0.062 | 0.583 ± 0.079 | 0.426 ± 0.022 |
| SAGGSAGGSAGKIWIYNPENGWIFEISIQPHPMPNDDGEPQWMFSIDVEVYPPGKPGQPISAGGSAGGSAGG [r11_531_TrROS] | 3.59 ± 0.065 | 4.1 ± 0.066 | 2.59 ± 0.079 |
| SAGGSAGGSAPEVKIKVELFENENGELTATATIEVDGKLYKITVKFDKNGKIVEVKIEELPSAGGSAGGSAG [r3_165_TrROS_Hall] | 4.14 ± 0.45 | 4.39 ± 0.27 | 2.83 ± 0.22 |
| SAGGSAKPKRFVALIKLKGPEGKEIAEIPIVISPDKPEVDIDEIAREIAEKLGVEEIEAEIKEIEESAGGSA [r15_333_TrMRF] | 0.498 ± 0.28 | 0.633 ± 0.2 | 0.48 ± 0.13 |
| SAGGSAGGSGSMEFTIDDEDLRIEIKFLPGGKVEITIWDPTNNVPLKTIETEPEEIEEVIEKLSAGGSAGGS [r20_129_JUSTAS] | 2.15 ± 0.082 | 2.05 ± 0.048 | 2.18 ± 0.17 |
| SAGGSAGVSTSKGSSVTTLKIDYKDDVVIKYSYNPSTGTVYTTVIDPETGNPVTVETYSVSPDVPLSAGGSA [r15_425_JUSTAS] | 1.02 ± 0.037 | 1.26 ± 0.084 | 0.649 ± 0.014 |
| SAGGKIEEVARELAKELNAVSIDFRTEGDVPSVEIRFRIPGSPLWLRVTITRDPDGNISVSIEPDPRSAGGS [r16_433_TrMRF] | 3.75 ± 0.09 | 4.16 ± 0.074 | 2.94 ± 0.054 |
| SAGGSAGGGTVLAEEEEPETGLVRRLVRLPDGTLVESVSLVDPETGEVLSEEVLRETPLPPPGLSAGGSAGG [r6_928_JUSTAS] | 1.29 ± 0.12 | 1.41 ± 0.054 | 0.898 ± 0.08 |
| WKIVEITDIEPDPDGWLEIKITIEPPEPGDPIKIMIFHPNQFHEFEIDPESPEIEIRIPPGFDNLHIFIYVS [r1_428_TrROS] | 3.9 ± 0.57 | 4.42 ± 0.2 | 2.82 ± 0.24 |
| SMLEKIEKAIESGNDGILVPLKLTPEEFKKVRAYLEELGFTLLSEEELAVGPVPVYELTFKVNTKTGEAASA [r9_498_JUSTAS] | 2.17 ± 0.13 | 2.44 ± 0.1 | 1.88 ± 0.066 |
